Series [1] concerns the molecule itself. The experiment in a line: gel filtration (S200 10/300GL), self-association.
Series [2] concerns the molecule itself. The series is described as follows: SDS-PAGE with and without 25 mM DTT, disulphide-linked homodimer (FIG. 12).
The next series deals with T1, HisIn (Streptococcus pneumoniae).
T1 construct: Recombinant, made in E. coli from pACYCDuet-HisIn; also called In peptide; In protein
T1 chain: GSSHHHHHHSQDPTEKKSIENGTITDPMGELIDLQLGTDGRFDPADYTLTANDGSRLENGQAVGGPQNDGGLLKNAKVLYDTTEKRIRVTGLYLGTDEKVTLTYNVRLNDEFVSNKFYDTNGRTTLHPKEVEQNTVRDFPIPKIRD
The experiment in a line: electrospray mass spectrometry of the purified complex (measured 26772, calculated 26788.16).

The target of series [3] is T2, In (derivative of In without His tag, co-expressed with HisJo) (Streptococcus pneumoniae).
T2 construct: Expressed from MCSII of pETDuet (pETDuet-In, pETDuet-HisJoIn); also called In peptide
T2 chain: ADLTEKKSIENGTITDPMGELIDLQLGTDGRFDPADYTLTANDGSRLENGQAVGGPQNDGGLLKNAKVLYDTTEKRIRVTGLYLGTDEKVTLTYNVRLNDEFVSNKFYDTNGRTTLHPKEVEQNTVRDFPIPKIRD
The experiment in a line: electrospray mass spectrometry of the purified complex (measured 25589, calculated 25606.03; loss of 17 Da).

B1: FusJoIn (other)
chain: GSSHHHHHHSQDPSDQYPQTGTYPDVQTPYQIIKVDGSEKNGQHKALNPNPYERVIPEGTLSKRIYQVNNLDDNQYGIELTVSGKTVYEQKDGSTPGSVTEKKSIENGTITDPMGELIDLQLGTDGRFDPADYTLTANDGSRLENGQAVGGPQNDGGLLKNAKVLYDTTEKRIRVTGLYLGTDEKVTLTYNVRLNDEFVSNKFYDTNGRTTLHPKEVEQNTVRDFPIPKIRD
notes: Single chain with the isopeptide bond inside the chain; Used as the control for the dimerisation of Jo-B1CK-In; also called FusJoIn complex; Jo-In fused via a linker of 7 amino acids
Regarding B1, the binding result in series [1] is “no binding”.

B2: Jo-B1CK-In (other)
chain: MGSSHHHHHHSQDPSDQYPQTGTYPDVQTPYQIIKVDGSEKNGQHKALNPNPYERVIPEGTLSKRIYQVNNLDDNQYGIELTVSGKTVYEQKDGIPEISQRTTIVIQKQTFISQHSCVNSTELDELIQQIVAAINAGIIPLGNTSNQISKLTEKKSIENGTITDPMGELIDLQLGTDGRFDPADYTLTANDGSRLENGQAVGGPQNDGGLLKNAKVLYDTTEKRIRVTGLYLGTDEKVTLTYNVRLNDEFVSNKFYDTNGRTTLHPKEVEQNTVRDFPIPKIRD
notes: Circularised within the chain by the Jo-In isopeptide bond; Forms a disulphide-linked dimer through the cysteine of the B1CK loop; also called fusion Jo-B1CK-In; recombinant protein Jo-B1CK-In
As for B2, the binding result in series [2] was “binds”.

B3: HisJo (peptide)
chain: GSSHHHHHHSQDPSDQYPQTGTYPDVQTPYQIIKVDGSEKNGQHKALNPNPYERVIPEGTLSKRIYQVNNLDDNQYGIELTVSGKTVYEQKD
notes: Recombinant, made in E. coli from pETDuet-HisJo; The Jo peptide is RrgA 144-218; the derivative has two more residues at each end; also called Jo peptide; Jo protein
For B3, the binding result (in the series with HisIn; in series [3]) was “binds” throughout.

The record behind these values is patent US20140030286A1 (COMMISSARIAT A L ENERGIE ATOMIQUE ET AUX ENERGIES …, published 2014).
